Experimental data from US20260217793A1 (Chugai, published 2026).
Residue numbers refer to the chain shown, from its start.

B1: IL6R-BP491/IL6R-L (antibody, human IgG1, kappa)
heavy: QVQLQESGPGLVKPSETLSLTCAVSGHSISHDHAWSWVRQPPGEGLEWIGFISYSGITNYNPSLQGRVTISRDNSKNTLYLQMNSLRAEDTAVYYCARSLARTTAMDYWGEGTLVTVSSASTKGPSVFPLAPSSKSTSGGTAALGCLVKDYFPEPVTVSWNSGALTSGVHTFPAVLQSSGLYSLSSVVTVPSSSLGTQTYICNVNHKPSNTKVDKKVEPKSCDKTHTCPPCPAPELLGDDSVFLFPPKPKDTLMISRTPEVTCVVIDVAEEDGEVKFNWYVDGVEVHNAKTKPREEQDNSTYRVVSVLTVLHQDWLNGKEYKCKVSNKALPRPIEKTISKAKGQPREPQVYTLPPSRDELTKNQVSLTCLVKGFYPSDIAVEWESNGQPENNYKTTPPVLDSDGSFFLYSKLTVDKSRWQQGNVFSCSVMHEALHNHYTQESLSLSP
light: not shown
B2: IL6R-BP498/IL6R-L (antibody, human IgG1, kappa)
heavy: B1 heavy with E235D, D298Y, P398L
light: not shown
B3: IL6R-BP489/IL6R-L (antibody, human IgG1, kappa)
heavy: B1 heavy with E235D, P398M
light: not shown
B4: IL6R-BP494/IL6R-L (antibody, human IgG1, kappa)
heavy: B1 heavy with I266V
light: not shown
B5: IL6R-BP496/IL6R-L (antibody, human IgG1, kappa)
heavy: B1 heavy with E235D, R332A
light: not shown
B6: IL6R-BP487/IL6R-L (antibody, human IgG1, kappa)
heavy: B1 heavy with E235D, D298Y, P398M
light: not shown
B7: IL6R-BP565/IL6R-L (antibody, human IgG1, kappa)
heavy: B1 heavy with E235D, I266V
light: not shown
B8: IL6R-BP551/IL6R-L (antibody, human IgG1, kappa)
heavy: B1 heavy with A269S, E274D
light: not shown
B9: IL6R-BP563/IL6R-L (antibody, human IgG1, kappa)
heavy: B1 heavy with E235D, I266V, A269S, E274D
light: not shown
B10: IL6R-BP540/IL6R-L (antibody, human IgG1, kappa)
heavy: B1 heavy with A269S, E274P
light: not shown
B11: IL6R-BP483/IL6R-L (antibody, human IgG1, kappa)
heavy: B1 heavy with E235D, I266V, V268L, D298Y, R332A
light: not shown
B12: IL6R-BP492/IL6R-L (antibody, human IgG1, kappa)
heavy: B1 heavy with D239G, D298Y, R332A
light: not shown
B13: IL6R-BP488/IL6R-L (antibody, human IgG1, kappa)
heavy: B1 heavy with E235D
light: not shown

The binders below were run against T1, FcγRIIb extracellular domain with C-terminal His tag (human, UniProt P31994 43-217) (assay: ratio of SPR KDs, FcγRIIaH over FcγRIIb, same variant).
T1 sequence (looked up): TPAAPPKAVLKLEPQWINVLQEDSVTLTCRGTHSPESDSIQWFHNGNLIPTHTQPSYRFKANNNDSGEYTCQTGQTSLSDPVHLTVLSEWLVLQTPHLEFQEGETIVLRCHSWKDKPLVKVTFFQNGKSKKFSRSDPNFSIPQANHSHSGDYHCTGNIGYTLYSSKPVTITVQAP

Binder | KD (IIaH)/KD (IIb)
B1 | 724
B2 | 564
B3 | 870
B4 | 821
B5 | 201
B6 | 730

Each binder was assayed against human FcγRIIIa type V (Val158) extracellular domain with C-terminal His tag (human, UniProt P08637 17-208) (assay: SPR).
Sequence of human FcγRIIIa type V (Val158) extracellular domain with C-terminal His tag (P08637 17-208 F176V): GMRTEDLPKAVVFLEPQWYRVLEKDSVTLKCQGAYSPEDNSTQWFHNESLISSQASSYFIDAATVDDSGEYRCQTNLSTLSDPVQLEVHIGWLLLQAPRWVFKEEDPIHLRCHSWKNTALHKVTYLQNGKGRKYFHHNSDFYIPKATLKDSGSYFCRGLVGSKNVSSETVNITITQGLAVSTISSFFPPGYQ

Binder | Kd [µM]
B7 | 21
B8 | 48
B9 | 38
B10 | 39

The binders below were run against T2, human FcγRIIa type R (Arg131) extracellular domain with C-terminal His tag (human, UniProt P12318 34-217) (assay: SPR).
T2 sequence (looked up): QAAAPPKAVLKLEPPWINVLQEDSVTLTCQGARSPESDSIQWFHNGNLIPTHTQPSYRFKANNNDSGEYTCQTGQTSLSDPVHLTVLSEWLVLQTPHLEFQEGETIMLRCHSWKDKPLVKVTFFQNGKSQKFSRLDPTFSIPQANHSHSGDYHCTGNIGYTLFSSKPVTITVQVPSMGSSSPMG

Binder | KD (IIaR) of parent polypeptide/KD (IIaR) of altered polypeptide
B7 | 4.8
B8 | 4.5
B9 | 2.4
B10 | 5.2

These binders were tested against T3, human FcγRIIb extracellular domain with C-terminal His tag (human, UniProt P31994 43-217) (assay: SPR).
T3 sequence (looked up): T1 sequence (looked up)

Binder | KD (IIb) of parent polypeptide/KD (IIb) of altered polypeptide
B7 | 565
B8 | 482
B9 | 196
B10 | 541

Each binder was assayed against T4, FcγRIIa type R extracellular domain with C-terminal His tag (human, UniProt P12318 34-217) (assay: ratio of SPR KDs vs IL6R-B3/IL6R-L).
T4 sequence (looked up): T2 sequence (looked up)

Binder | KD (IIaR) of parent polypeptide/KD (IIaR) of altered polypeptide
B11 | 0.8
B1 | 9.3
B2 | 21.7
B3 | 25.7
B4 | 4.3
B12 | 1.2
B5 | 2.3
B13 | 14.8
B6 | 28.3

Each binder was assayed against T1, FcγRIIb extracellular domain with … (assay: ratio of SPR KDs vs IL6R-B3/IL6R-L).

Binder | KD (IIb) of parent polypeptide/KD (IIb) of altered polypeptide
B11 | 39.7
B3 | 3100
B4 | 471
B12 | 131
B13 | 1680
B6 | 2700

The binders below were run against T1, FcγRIIb extracellular domain with … (assay: ratio of SPR KDs, FcγRIIaR over FcγRIIb, same variant).

Binder | KD (IIaR)/KD (IIb)
B11 | 16.8
B1 | 38.8
B2 | 30.8
B5 | 25.5
B13 | 40.1
